Assay: label from the status in PepcDB records

Question: With “MKELNLTQGSVPKVLLQYAVPFLIANVLQALYGGADLFVVGQYDDSASVAAVAIGSQVMQTITGIILGITTGTTVLIAIATGAKDDKKVAFTIGSSVWLFSIIGVLLTLVMVVFHGRIAELMHTPIEAMADTKSYILVCSAGILFIVGYNVVCGILRGLGDSKTPLYFVALACVINIVLDFILVGYFHLGATGAAVATITAQGVSFMISLWFLYRHGFHFEFTRKDIRLNRNLAKKVMTLGAPIALQDALINISFLIITVIVNQMGVIASASLGVVEKIIVFAMLPPMAISSAVATMTAQNYGAGLIQRMNRCLASGIGIAFVFGVSVCVYSQFLPETLTAFFTKDAAVVSMAAEYLRGYSIDCIVVSFVFCINSYFSGQGNSLFPMIHSLIATFLFRIPLSYWFSQIDSSSLFIMGFAPPLSTVVSLLICIWYLRYTRKKVYLKGTMMPAMSN” as the sequence, how does the protein production read?
Answer: failed

Question: With “EDLSAQPVQTKFPAYERVVLREAGFLRPVTIFGPIADVAREKLAREEPDIYQIAKSEPRDAGTDQRSSGIIRLHTIKQIIDQDKHALLDVTPNAVDRLNYAQWYPIVVFLNPDSKQGVKTMRMRLCPESRKSARKLYERSHKLRKNNHHLFTTTINLNSMNDGWYGALKEAIQQQQNQLVWVSEGKADGAT” as the sequence, how does the protein production read?
Answer: failed

Question: Which protein production does the source give for “PIKQSFLLKRSGNSLNKEWKKKYVTLSSNGFLLYHPSINDYIHSTHGKEMDLLRTTVKVPGKRPPRAISAFGPSASINGLVKDMSTVQMGEGLEATTPMPSPSPSPSSLQPPPDQTSKHLL” here?
Answer: failed

Question: For “NRFIGYIQVACCCLLLCASCVRDGMDEDCNSYVRFVYDYNLEYIDLFHKQATKMNLYVFDEKGVFVTELKEESGAFAPDYLMTLPGAMAGRRYIFVAWSGLYGESYDKVTLTPGVSTLEDLEVSVNNLKTRIGGGVVDRELHLLWHGKQTEVSPQYNNDITTVSLLKNTKKFRIIMQMLDDSSIHVDDYDFRIISPNGRYNHENGLLGDETDEKVEYTAYHTEDDPETGAIAELNTLRLMTDTENRLVITHKSSGNVILDIPLNKYLNALRLQQYADIPLQEYLDRADKHGIILFFKGMDGNGNYISVDVQINGWLIRKQEVD”, which protein production is on record?
Answer: not failed

Question: Which protein production does the source give for “LDLMKEKNLIQKFFKELIKDDGGLSAYGEAQVMKYLEMGAIDTLIVTEDIGITRVTVKCNNCDYAQEVNVKTNEMFKFEEQLKTKACPTCGGAMYIDEEKDIIEHLSDLCHMHNTDIIVVSTDTEEGSQISRAFKGMAAILRYKL” here?
Answer: not failed

Question: Which protein production does the source give for “MGNQDTIIETDNGNSDYETPQPTSFPLEHNHFGVMEDGYIKIYEYNESRNEVKLKKEYADDELELEHHHHHH” here?
Answer: not failed

Question: Which protein production does the source give for “MRFRQLLPLFGALFALYIIWGSTYFVIRIGVESWPPLMMAGVRFLSAGMLLMAFLLLRGEKLPPLRQTINAALIGLLLLAVGNGLVTVAEHQNVPSGIAAVVVATVPLFTLCFSYFFGIKTRKLEWVGIAIGLAGIILLNSGGNLSGNPWGAILILIGSMSWAFGSVYGSRIALPVGMMAGAIEMLAAGVVLLCAAFLSGEKLATLPGLSGLMAVGYLALFGSIIAINAYMYLIRNVSPALATSYAYVNPVVAVLLGTGLGGERLSPVEWAALGVIVFAVVLVTLGKYLFPARAVVTPCKTEDSRQ” here?
Answer: failed

Question: With “MQSDVVLGAAHWVYLLSVVAIILTMVLRANAVVPSVLGTFLVVLAFTGSPIQALVGIFTASFVAAKELFNIFLVITFMTALLNALKVLQADVRMVQPLRRVMTNGHASFLILAGCTYGLSLFFWPTPAVPLVCAILLPAAVAAGLPPLAGAMAIAIAGQGMALSSEYVIGVAPGISAKAAGAAVSAAVVADRALVLSVITGAIALVMTYLFMRKHIVPGDTALLAAWQARAQDGELERIEGSGSFDKAELARGASQPVKGGAEARLAGWSRAFALITPIAFLGVIALMALPRLVPGLPALRGGDAAALVGGVAFMLMMLATLAAEGPRRMLDVCPEHVTDGFVFAFRAMGSVLPIAGFFFIGAAETAAPILGLESGHAPGLLFDLISAAQHLIPENHYLVAFGVLLVGMVTGIDGSGFAGLPLTGTLSGALGPVVGIDPATLAAVGQMGAVWTGGGTLIAWSSLIAVAGFARVHVLDMVRALMLPVLLALSVSTIAAILIWS” as the sequence, how does the protein production read?
Answer: failed

Question: Which protein production does the source give for “MYLPTHFKQENQAELFDLIEHHPLGTLIVMHADGLEVNHIPFELDRLHLPAGILRGHIAKANPLASLLSEPQSAYVIFQAEQHYISPNWYPGKQEHHRVVPTWNYRVVHATGQLSVIEDQKYLRGVLARLTRQHEADQPAPWRLSDAPADFIEQQLEKIMAIEFNIESIIGKFKLSQN” here?
Answer: failed

Question: With “MSKKKETKLSKYIKVPIKMLVKARDMYIRSMNQFSSHDLPGSGMSFGIPVCNVSTLPRSFSASHSQYSVRAEDDRVAKLVRAASARNATIDGARHEPSKLRKAKSSRSCGGHRGFEKIDEASPLISFGSKHKMFQRSKSYSVVKYLGS” as the sequence, how does the protein production read?
Answer: failed

Question: With “MIRSIVCTQRLIHRIMYTSARKYFIQFAIVAFVLGFIPTLYFIHAASQLETQAVSSVEKQTRLQLEFSQHDLLRMLESTHQATQLLAKNDLLFTAVTTPSKEALSQLKTLWDVTLRSQAIFSSFRLLDRQGKEQLKAIYDGHQVTFVESAQTTDPFSQQIVAQYAQLTTPQVWATQVAMSADTPSGMLPTFRFVTGIEHQGQRQGFLVVTVKLQSLYQRLSFIYDQFDSPDILNSAGELLLSEHKPSGTRSTSSLHFSAQHPELWQKIQLNQQGFALSNQTWFSYIKVDLSSVLPDFKPLVLVLRINKAEIDKTYANARWALMSQAVTVLSLLSIIAAGFAAWNINHLKNSLDSKLARAAMDGMSAVVITDRQNRIIKVNNEFTRLSGYTFEDVKGKQPSIFASGLHKVEFYMQMWKALQDNGVWEGEVINKRKDGESITEILRIQSIRDEDNVIQFYVASFVDISHRKALENRLRELSEKDALTDLWNRRKFDQTISLECAKRRRYPDQAQSCLAIIDIDHFKRINDKFGHNEGDLVLRTVAKGIQDQLRESDFIARIGGEEFAIIFPYTSIEEAEQVLNRVRLHIASLHHQQVTLSGGVTDVCTSPDQSYKRADLALYESKTSGRNQISVLTAMEMHHFA” as the sequence, how does the protein production read?
Answer: failed

Question: With “MRFGPVALSAAKGALLAHSRKAPGWTLAKGTRLGDEDLALLAGLGVAEVVVARLDPGDVHEDEAAARVAAVLLGPGLTLGDAFTGRANLFAGGDGLLRLDAARFDRLNALCEGLTVATLPPFAKVAPRQMVATVKIIPFALPETVIAQAEALLAGAPALEVALFRPMRLALIQTHLPETAGKMLDKTASVTAGRMAALGGGLTVDRRCPHDTRALAACLSAVSAEKDVDLIAVAGASAIVDRGDVIPAAITRAGGRVDHLGMPVDPGNLILLGELAGRVVLGLPGCARSPAINGFDWVLDRLCAGLAVGGADLMAMGVGGLLKDTTARTQPRMAAVTHPSPAAPPRLGALVLAAGLSRRMGGVNKLLLDWRGKPLVAHAVDTVLAAGPAAVAVVIGHQGKAVRAALEGRAIALVENPDPGRGLGSSLKRGLAALPADLDGVIVCLGDMPGLTPRLLSRLIAAFAPLEGRAICLPTFGGRRGNPVLFAARFLPEMMEITGDIGARPVIAAHPDQTCEVAMDALAEGASVLMDVDTPEAAKALLSAGGLEHHHHHH” as the sequence, how does the protein production read?
Answer: failed

Question: For “MKDTFRLENQTIYFGTERAISASPQTIWRYLTETDKLKQWFPELEIGELGVNGFWRFILPDFEETMPFTDYAEEKYLGVTWDTGIIYFDLKEQAPHQTLLVFSESLPENFTTPRHKDIAGWSIVLNRLKQVVETPDAAPEKIDFPQIENHYLEKLTNLEN”, which protein production is on record?
Answer: not failed

Question: For “MAILHSVSYGTSDNTLVFIGSLGSTTDMWLPQLDALHKDFRVIAVDHRGHGLSELIEGTPTVADLAQDVLDTLDDLGVGNFGVIGLSLGGAVAQYLAATSDRVTKAAFMCTAAKFGEPQGWLDRAAACRENGTGSLSEAVIQRWFSPTWLENNPASREHFEAMVAGTPSEGYALCCEALATWDFTDRLGEITVPVLTIAGADDPSTPPATVQIIADGVGGESRAEVLSPAAHVPTVERPNEVNELLAQHFA”, which protein production is on record?
Answer: failed

Question: Which protein production does the source give for “MKMRKLVKDFGDDYTLIQDSQEVKAILEYIGSEEEPHALFVKVGDGDYEEVWGIDSFVPYNFLEAYRLK” here?
Answer: not failed

Question: With “MEEKRLVIVGTAHVSKRSVEEVAEVIEREKPDAVAVELCPRRYHALVHGQREEISVADVIRKGNVFMLLFQLILAYFQRKVGEETGVKPGSEMLAAIEKAREAGADVLLIDRDIGLTFTRFWQKLTFVEKIKLIFHLVRSTFSGDEIEVDEMLEEDVLDMLVKEFRKISPNAAKVLIDERDVYMAANLLNALSRYNRIVAVVGAGHRKGIEEALLKLKENPV” as the sequence, how does the protein production read?
Answer: failed

Question: Which protein production does the source give for “MRQWIAVFALVGSVAAQAGVADQAAAVSALKEGKLAMDVRSQTDYEAGTVLNAVRVDERRLVNQMKQVLSDRNAVFVIFSSTDSKADKAQEKLRAAGYFSVINGGNYEELHNALYDITDDPAE” here?
Answer: failed

Question: For “MTENPEEDNKVFNYWWLAHLVEVRLDAYLRTKKQADLEVAEKTYLHNKNRNGGTLIHDFYDDMLWNALAAYRLYKATGKSIYLEDAQLVWQDLVDTGWNDIMGGGFAWRRPQMYYKNTPVNAPFIILSCWLYNELNETKYLEWAMKTYEWQTKVLVREDGFVEDGINRLEDGTIDYEWKFTYNQGVYIGANLELYRITKEAKYLDTANKTAAISLKELTEDGIFKDEGNGGDEGLFKGIFYRYFTDLIEETANKTYRDFVLNSCQILVENAKLDGYLLMGMNWKEKPSGKIPYSAELSGMIALEMAAKLELEHHHHHH”, which protein production is on record?
Answer: not failed

Question: With “MEGFPVRVRVDVRFRDLDPLGHVNNAVFLSYMELARIRYFQRISPDWLEEGHFVVARMEVDYLRPILLGDEVFVGVRTVGLGRSSLRMEHLVTANGESAAKGLGVLVWLEGGRPAPLPEAIRERIRALEGRPL” as the sequence, how does the protein production read?
Answer: not failed

Question: For “MLCACSGEQFRFEDQPGSPESLATRDFSASGLSSRNGGGDWDSKLEDIQVDEAESTLKEALSLNYEEARALLGRLEYQRGNFDAALQVFKGIDIKVLTPRIIKAIVEKTLPCKPRSKAVIVPPTTMSMHSVSLLLEAILLKARSLEELGSYKEAAEECKIILDVVENALPSGMPDGISGFAKLQDIFQKALELLPLLWKKAGNHHETIASYRRALSRPWNLDPQRLAVTQKSLALVLLYGSVEACPKDNIEEAIVLLMLLVKKMVVGDIQWDPELMDHLTYALSMTGQFEVLANYLEQTLPGVYTRGERWYLLSLCYSAAGIDKAAINLLKMALGPSESRQIPHIPLLLFGAKLCSKDPKHSRDGINFAHRLLDLGNSQSEHLLSQAHKFLGVCYGNAARSSKLDSERVFLQKKSLFSLNEAAKRGKADPELDVIFNLSVENAVQRNVQAALDGAVEYSSMVGGVSTKGWKHLAIVLSAEKRLKDAESILDFTMEEAGDIEKIELLRLKAVLQMAQEQPKKAMKTCSSLLGLIRAQEKSEQSESLLQKFETEAWQDLASVYGKLGSWSDAETCLEKARSMCYYSPRGWNETGLCLEAKSLHEEALISFFLSLSIEPDHVPSIVSIAEVMMKSGDESLPTAKSFLMNALRLDPRNHDAWMKLGHVAKKQGLSQQAAEFYQAAYELELSAPVQSFI”, which protein production is on record?
Answer: failed

Question: Which protein production does the source give for “MPKSCSASNCTNRYNNKNPEITFHRFPFSKPSVLKQWLDNIGRDDFQPRKHMVICSLHFTPDCFSGLGNRKNLLWNAVPTLFAVPTQDANQNNFRKRLKRALQSASEKWDGITPDGLPLFTEEMHEDTQDCNNNEVADCQSTKVFAAADHTYALSDACTTKARLFNILDANRWLRKRLQAKCRVIKRMKLKLKDAQRELLTLRQQIRHRHVNH” here?
Answer: failed

Question: With “MQKIVIVANGAPYGSESLFNSLRLAIALREQESNLDLRLFLMSDAVTAGLRGQKPGEGYNIQQMLEILTAQNVPVKLCKTCTDGRGISTLPLIDGVEIGTLVELAQWTLSADKVLTF” as the sequence, how does the protein production read?
Answer: not failed

Question: Which protein production does the source give for “MNLASIIGWGVGFGAILISMAFTPTGLGVFWDLSSVFITVVGSFSALMASSEVVAVKKIPTYLGFFFRRNSYAKVSIIKILVELSEKARKEGLLSLDDELEQINDPFFKSGMRLVVDGADPEVIRTMLYLELDQMQERHKVGSDLFKTWAKLAPAFGMTGTLIGLVALLGNLEDKSALGSSMAVALITTLYGTIMANLMFTPVQLKLEKIDTEEAAVKTMIIEGVLSIQSGDNPRILEQKLMTFLTPKDRSQLNSSIGGE” here?
Answer: failed

From a protein production outcome set (Wang et al. 2014)
